Source: the DeepSol protein solubility set

Test: soluble on expression in E. coli; label from the status in PepcDB or PDB records

Sequence | soluble on expression in E. coli
MANLTRRQWLKVGLAVGGMVTFGLSYRDVAKRAIDGLLNGTSGKVTRDRIFGNALIPEAQAQTHWQQNPQQTIAMTQCFGCWTQCGIRARVNADGKVIRIAGNPYHPLSQEHPIDSSVPFSEAMEQLAGESGLDARSTACARGATLLESLYSPLRLLEPMKRVGKRGEGKWQRISFEQLIEEVVEGGDLFGEGHVDGLRAIHAPDTPIDAKHPSFGPKTNQLLVTNTSDEGRDAFLRRFALNSFGSKNFGAHGAYCGLAYRAGSGALMGDLDKNPHVKPDWENVEFALFMGTSPAQSGNPFKRQARQLASARLRENFQYVVVAPALPLSTVLADPRGRWQPVMPGSDSALAMGMIRWIMDNQRYNADYLAIPGVQAMQQAGEQSWTNATHLVIADELPTLAGQHLTLRHLTPDGEETPVVLNTDGELVDASTCRQARLFVTQYVTLADGQRVTVKSGLQRLKEAAEKLSLAQYSEQCGVPEAQIIALAETFTSHGRKAAVISHGGMMAGNGFYNAWSVMMLNALIGNLSLSGGVFVGGGKFNGVSDGPRYNMNSFAGKVKPSGLSIARSKTAYEASEEYRDKIAGGQSPYPAKAPWYPFVAGQLTELLTSALEGYPYPLKAWISNMSNPFYGVPGLRAVAEEKLKDPRRLPLFIAIDAFMNETTALADYIVPDTHNFESWGFTAPWGGVASKATTARWPVVAPATHRTADGQPVSMEAFCIAVAKRLHLPGFGDRAITDPQGNTFPLNRAEDFYLRVAANIAFMGKTPVALANQEDISLTGVSRILPAIQHTLKADEVGRVAFIYSRGGRFAPEDSGYTEQRLGNAWKKPLQIWNADVAAHRHAITGERFSGCPVWYPARLSDGRAIDDQFPIGQWPLKLISFKSNTMSSSTAVIPRLHHVKPANLVALNPQDGERYGLQHGDRVRIITPGGQVVAQISLLNGVMPGVIAIEHGYGHREMGATQHSLDGVPMPYDPQIRAGINLNDLGFADPTRTITNTWLDWVSGAAVRQGLPAKIERI | not soluble
MANMTFSLPDPMKDWIESRIQKGEYASASDYVRDLVRRDWARRGQDFSIDELRQIVAESRASGVGSRSMDDLFAEAERVATAHGVMRE | not soluble
MANQLAAVLGTGQTHYVAKRHDVSMAGLVREAIDRAMEDARVGWDDIDAVVIGKAPDLFEGSMMPELAMSDALGANGKPLLRVHTAGSVGGSTAVVASSLVKSGVHKRVLTVAWEKQSESNAMWALSTPIPFHMPVGAGAGGYFAPHVRSYIRRSGAPDHIGAMVAVKDRLNGSLNPYAHLKQPDITLESVQASQMLWDPIRYDETCPSSDGACAMVIGNEEAAEQVTADGREVAWIHATAMRTEPTTFAGRDQVNPQAGRDAAAALWKAAGIKDPLDEIDVAEIYVPFSWFEPMWLENLGFVSEGEGWKLTEAGETAIGGRLPLNASGGVLSSNPIGASGMIRFAESAMQVMHRAGDHQVKDARKALGHAYGGGSQYFSMWVVGSDRPNN | not soluble
MANRVTMMMKIFENQTAMLHKALNDQHTIESKYKQMETNYENLILKKNLLEGEIQRLRDPERVKSATKLERTKKPGKSEKKKDKDLERNISPNREFKSFEELHQIQETERNKTQLDNVLPQKSEMFKEERTKTKRGQSQNKSKVKIEDSKDSLPKKSDTQLGEQRKDQISSDQSKRAK | soluble
MANSAGSMQQILNQFNHVVAIGGGHGLGRVLSSLDFLGNRLTGIVATTDNGGSTGRLRAEQDCIAWGDLRNCLSQLAHRPSVGSQLFEYRFQGETELSGHNLGNLMLLALDKLCVRPLEAVNLIRHMLKIETNIIPMSEQPTHLVALQASGSKVFGEVNVDKMNEAPIALCLEPQVNATTEACEAIRRADLIILGPGSFLTSIMPPLLLPCFAKALAMTTAPVVFIDNLNEEASPAGQFSIEQRISWCHQVIGKPVITKVLRHSEQLRLGTLVNYFPLRNRHNPQLHDQASLRDALCAVLRIKSGLPLETLVSLEHHHHHH | not soluble
MANTITADEIREHFSQAMSAMYQQEVPQYGTLLELVADVNLAVLENNPKLHEQLANADELARLNVERHGAIRVGTAEELSTLRRIFAIMGMYPVSYYDLSQAGVPVHSTAFRPIDEASLSRNPFRMFTSLLRLELIENAALRQRAAEILSQRDIFTSRCRQLLDEYDEQGGFSAAQAEEFVRETLETFRWHRQATVDEETYRSLHREHRLIADVVCFPGCHINHLTPRTLDIDRVQAMMPECGITPKILIEGPPRREVPILLRQTSFKALEEQVLFVDEKQGTHTARFGEIEQRGVALTPKGRRLYDELLHKAGTGKDNFTHQLHLREVFNAFPDSEFLLRQQGLAWFRYRLTPSGEAHRQAIHPGDDPQPLIERGWVIAQPITYEDFLPVSAAGIFQSNLGDETLARSHGNASRDAFEQALGCAVRDEFSLYQEAEERSKRRCGLLLEHHHHHH | not soluble
MAPAKKVETRSTDGETRRHIMLIMLKEGPVTATQLGQQLNLSATGIRRHLDILLDEGFAEISSVRRVACEKSRGRPAKAFKLTASGRSQFGHEYDSLAAEALATLKESGGEAAVRAFARKRVEKILADVHVPDNIDDNQLAEVATQLVEAFSNNGYAATINNAANGVQICQHHCPISGVAADFPELCEAEHEMIAKILGHHVQPLASIADGHDICTTNIPITPILTPRKNTPTERSGS | not soluble
MAQGYRRDHNHHHESGYKRPSDPGGDLPSDKRHRPPPAEGRTLSADRRLYERHFPLYKQPLELGCFSLDARRNFFNDHRQLRYYVEPRRSPDFNLRDGYTSRFIKRDDGVKEKLDHMLRWILENRHKMQNSNSSSCALGVDFITWRGHLTKVLTTPYETQEGWMMAACKFRGSIYISEVETEQARENRETRSERQEEMMYWGYKFEQYTCADGADGTPDPGGVVNTNEAFCTVVQTRLADQSQTLRV | not soluble
MAQILPIRFQEHLQLQNLGINPANIGFSTLTMESDKFICIREKVGEQAQVVIIDMNDPSNPIRRPISADSAIMNPASKVIALKAGKTLQIFNIEMKSKMKAHTMTDDVTFWKWISLNTVALVTDNAVYHWSMEGESQPVKMFDRHSSLAGCQIINYRTDAKQKWLLLTGISAQQNRVVGAMQLYSVDRKVSQPIEGHAASFAQFKMEGNAEESTLFCFAVRGQAGGKLHIIEVGTPPTGNQPFPKKAVDVFFPPEAQNDFPVAMQISEKHDVVFLITKYGYIHLYDLETGTCIYMNRISGETIFVTAPHEATAGIIGVNRKGQVLSVCVEEENIIPYITNVLQNPDLALRMAVRNNLAGAEEL | soluble
MAQIVRQSKFRHVFCKPVKHESCMSDIRVTEITWDSLFCDVNPKFIAFINRGAGGPFMVIPVNKIGRVDKDYPFVDAHKAPCLEVAWSPFNDNVIASCSEDTTCKVWVIPDRGLNRNLSEPAVELTGHQKRVNTIAWHPVANNVLLTAGGENVMFMWNVGTGEALLEISGHPDQIWSINFNFDGSQFVTTCKDKKIRILDSHTGEVVHEGMGHEGVKPQRAIFVKDGLILSTGFTKRSERLYALRAPEDLSTPIVEEELDTSNGVVFPFYDEDSGLVYLVGKGDCAIRYYEVNNDAPYVHYINTYTTNEPQRAVGFQSKRGMSSEENEINRIYKLTTKGVVDILQFFVPRKSDLFQHDLYPDTRSTIPALTAEEFMEGKNAAPNRQPVNAAAAAAAAKPKVQVAKKANILSTLAPTAAESVPTQSYSERPPSSQQPSPRPSASPRPRPVVDDDMGIVTMREAPPSRPASSRASRTEIPPKEESKVDPMKPKQAVQLKSRAARDEPGGGAQTAGQRRAAAELERIKRDQSRTADEDNTLAPPPSSSRASASPRGSVSAASDHVPQNMDELLEDLMKMKAVLRQHERRIRMLEEEIADRNMSNAYSF | not soluble
MAQNPNSFTDSVFGMIRNLLVSIRAGLFELTIKQPVTQNSLQRYQEEHREEKQQYLRQAILDLAEDSEEEDDGQPLDKETLSKMIAELTIERNNLRRSFNIVNEQRTGSKDRQHMEEEIRIQNWTKEDREELESGLAVMRQTIQESWKDAADCEQEKRSKNNQ | not soluble
MAQVGETEVVAGNVRDIVNRLSRDMTNRNPFTVHQQVERRAPPPQPQAQIYVATYAYSSKQDDELSFVVGDLIELISDVEDGWSKGKLKSTGAVGMFPTNFVTLKPTPSTSAAAVAPAASASTSAGSAARTPAKSIGSEVVMRSEPKAIDRTPSTIISDPAPVLKALETKFSSTFASSAASASTDAETTKTKEMARVKFVYNPQHDDELALKEIDMLINITNKNCGDAGWFEGELHGKKGLFPDNFVELVQVPLGTESGARHGSISRQATLTFVSHKPPPVNPPQPAVPPKPAKISVVRRGFIEKIEKKMFHFISGNN | soluble
MARETHDREDLLLEGVNLPERARLLHRASGREWVIGWRTGGGAAFYDGPDRVYQFNADNQLRRVYLDGSKLAAEGGRLCELRRPEPTNPDGSAGDRTQKVKLVWQPIDSAIQRNVLEQWAETRQQLLTALELFRERDLPNVTIASTAPDGSNSSLSTQPSIYSWESVGIDAFEMLDRTSGWLVSITDNPEIAAQPNA | soluble
MARFSSVLIYDGECPYCSVAAKALEQVDDIGAISWYDESAQSFLTAQFDEPPFAMVLVDRPAQQVYAGRAAAEELAGRAGLPDLVGSLVRDNYEKIAHVVGLASGRGLEHHHHHH | not soluble
MARFTDKVAIITGSSNGIGRATAVLLATDGAKVTITGRDAARLEETRQAILKAGISATNVNSVVADVTTAEGQDLLISSTLDKFGKINILINNAGANIPDSQGQTRTKCSIENLTKMFQLNLQSVVEMVQKVRPHLAKTRGEIVNISSIGAGPAAQPASPYYSSAKAALDQYSRCAAIDLISEGIRINVVQPGFVSTGFSTAARGLSADESVKFYDLMGSLPHCIPAGYCGQPDHLASVIAFLVDRKVSEYIVGQTIIADGGSSLVIGCHAPRQ | not soluble
MARGCDLCFPGRKAVVFVTGLCDDSCFYCPVSRAKLGRDVFYVNEVPVASVEEAVAEVLRTGASGASLTGGDPLVALHRTLDVARALKSELGRGFHIHLYTSGRRMTPEVARALWEAGVDEVRIHPTERSLLSRVGMVKRYTGMSVGVEMPIAPGLEELAIEAVKTVEAVGGDFVNLNEMEIVEPNARALLARGYTESGERPFTVRGALEAVLRVLEWAAENSSVPVHFCPASFKDSIQTGNRLRSSAARDAYWYEEPTPHGTLTWGEVRGGSPPPGLGEERGGRIMLPPRADLLETVVRMYGGEAYIVEAHPTPSRTPIVSERRIA | not soluble
MARKRRAARVKDKWTLKKWFTLIAPEYFGMAELGETPADDASKVVGRTVETTLAELTNDYSNQNTYKKLIFKVYRVAGDNAYTKFWRFELTREYLNSLTRRRTSKIEDIVDVTTADGYKLRVKSVVFTVRRCKTSQKRAIRAIMRQIVVEKASSLNFVQFLQECVLGKVPAEIYKNAKKIYPIRRVEIRKIELLAEPAEAETQPAVAEAVALEHHHHHH | soluble
MARLNITFSPQAFEDYKYFQQNDKKMVKKINELLKSIDRNGALEGIGKPEKLKSNLTGYYSRRINHEHRLVYTVDDNHIKIASCKYHY | not soluble
MARVAIVGTGPTGIYTFFNLIQTDPSHHITLFERGEKAGIGLPYSPEAASKSMLANIASIEIPPIEATYLDWLKGQPDAKLRAYGLDRAELDDRQFTPRLLLGEYFRDQLLSLLDRHRARTEVLETTEVTDVIARNDALFLRAAEREFGPFDRVILATGHVFPDADEATRSYFPSPWSGLIQAEVPPVSVGIMGTSLSSIDAAMAVANQHGRFRRHGEELTFEPATEGLHLTLMSWSGVLPEADFWCPIPYEPLQVMTDDAVAQCAAQADPLDRVFALLQEEIAQADPAYADRIGLATLTADTFGDAYFAAREAQDPFRWARRNLEEVEHNKAHQITVPWRYALLRMHEKVETLVPHLGDADRKRFDGGLKKVFVDNYAAVPSESIRRLLALRDAGLLSVLALGEDYELKREPDRTVIHAKGKTHVFPVFIDARGQKPMESRDMPFPSLRRALMGSKQDIPELDADFALVGVPDYDRHAHLAAIPYLMHDRPFVQGITASAEIGATIARGISQAVGDRAAQGGRRSSAPVVATGLEHHHHHH | soluble
